Results on six molecules are retold here after publication PMC11079029, “Intramolecular autoinhibition regulates the selectivity of PRPF40A tandem WW domains for proline-rich motifs” (Nature Communications, 2024).

The experiment addresses T1, PRPF40A WW12 (tandem WW domains, residues 141–236) (Homo sapiens, UniProt O75400).
T1 construct: WW12 141–236, WW12long 141–248, and N-ext-WW12 56–236; 6xHis-TEV site (N, cleaved yes); made in house; host or cells: Escherichia coli BL21(DE3)
The experiment can be described thus: ITC of PRPF40A WW12 with GB1-tagged proline-rich peptides and constructs. The class given is binding. As to conditions: for DH: ITC binding enthalpy, as E4; for Kd: ITC as E4, read-out: Kd (mM), Individual values. An excerpt: PRPF40A isoform 1 sequences (N-ter 1–310, WW12short 141–223, WW12 141–236, WW12long 141–248, and N-ext-WW12 56–236) were amplified from a purchased DNA fragment (IDT) and cloned using NcoI and KpnI restriction sites into a pETM11 vector encoding 6xHis and TEV cleavage site as a N-terminal tag. SF1 (Pro A 410–468, Pro B 468–539, Pro C 539–594, Pro D 594–639, Pro BC 468–594, Pro CD 539–639, Pro BCD 468–639 and Pro ABCD 410–639) and SF3A1 (Middle Pro 364–413 and C-ter Pro 552–683) constructs were prepared in a similar manner using a pET24 vector with a 6xHis, GB1 and TEV cleavage site as N-terminal fusion cassette. 16-mer SF1 constructs (Table 1) and polyproline peptides (P6, P8, P10, P13, P16, P19, P22, P25, and P29) were cloned in the same pET24 vector with GB1 tag by direct ligation of purchased oligonucleotides (Eurofins). All peptide sequences contained N and C-terminal common residues to avoid boundary effects on binding: TEVsite-GAMSGS-peptide-SGSN. Mutants of PRPF40A WW12 and N-ext-WW12 constructs were prepared by site-directed mutagenesis. The truncated version of PRPF40A WW12 (141-217) was a gift from Dr. María Macías (IRB, Spain). All used oligonucleotides were purchased from Eurofins Genomics and are shown in Supplementary Table 6.
Resuspended cell pellets in 20 mM Tris pH 8.0, 500 mM NaCl, 10 mM imidazole, 0.5 mM TCEP, and protease inhibitors mix (SERVA) were lysed by cell disruption in a French press. Clear lysates, after centrifugation (at 18,000 g) and filtering, were loaded into Ni-NTA resin. The resin was then washed with 20 mM imidazole containing buffer, and the desired protein was eluted with 500 mM imidazole. PRPF40A constructs were then subjected to TEV protease treatment (homemade at a final concentration of ≈50 μg/ml), dialyzed overnight at 4 °C against an imidazole-free buffer, and then loaded again to Ni-NTA resin; desired digested proteins were obtained in the flow-through and wash fractions while uncleaved protein, TEV protease, and impurities remained bound to the resin. Cleaved PRPF40A proteins and GB1-tagged SF1, SF3A1, and polyproline constructs were further purified by size-exclusion chromatography on a HiLoad 16/60 Superdex 75 column (GE Healthcare) equilibrated with 20 mM sodium phosphate, pH 6.5, 100 mM NaCl and 1 mM DTT buffer. For the purification of PRPF40A WW12 in complex with SF1 peptide, cell pellets of recombinant expression for both proteins were mixed and processed together following the Ni-NTA—TEV digestion—reverse Ni-NTA—SEC-75 protocol; where the complex remained bound in a 1:1 stoichiometry throughout the whole purification (corroborated by NMR). Molecular weight of each sample was confirmed by mass spectrometry, purity was checked by PAGE-SDS, and protein concentrations were determined from the aromatic contribution to the UV absorbance spectra at 280 nm.
Experiments were conducted on a MicroCAl PEAQ-ITC (Malvern Instruments, UK) at 25 °C in 20 mM sodium phosphate pH 6.5 and 100 mM NaCl. PRPF40A was titrated into N-terminal GB1 tagged SF1 or polyproline constructs and vice versa with similar results. Protein concentrations in the cell were around 20–40 μM, while in the syringe ranged between 200 and 500 μM. Experiments were performed at least in duplicate with injections of 1.5 μL (0.4 μL for first point) separated by 150 s delays to recover thermal power baseline and continuous stirring in the cell (750 rpm) for correct mixing. The reference cell was filled with water in all experiments. Data were processed by removing the blank experiment (using digested GB1 fusion protein) and adjusted to one-site binding model with Malvern PEAQ-ITC Analysis software (Malvern Instruments, UK).

Where [1] appears, read: source data of Fig. 4C,D, individual value 1.
The mark [2] stands for this setting: source data of Fig. 4C,D, individual value 2.
[3] abbreviates: source data of Fig. 4C, individual value 3.

Read-outs that look alike come from different tables or passages of the source.

T1 sequence (O75400 141-236): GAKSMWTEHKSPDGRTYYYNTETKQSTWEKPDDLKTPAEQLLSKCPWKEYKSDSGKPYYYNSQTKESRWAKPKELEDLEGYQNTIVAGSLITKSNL

B1: SF3A1 C-ter Pro: GB1-tagged SF3A1 construct, residues 552–683 (protein)
chain: EIPQQPPPPSSATNIPSSAPPITSVPRPPTMPPPVRTTVVSAVPVMPRPPMASVVRLPPGSVIAPMPPIIHAPRINVVPMPPSAPPIMAPRPPPMIVPTAFVPAPPVAPVPAPAPMPPVHPPPPMEDEPTSK
modifications: left off: His6, N-terminal, state not stated | GB1, N-terminal, kept
As usually defined, the Kd is the free concentration of one partner at which half of the binding sites on the other are occupied at equilibrium, for simple one-to-one binding. Regarding B1, the “DH” value is -68.83 ± 18.8 kcal/mol. Also, the Kd under setting [1] stood at 0.0238 mM. Under setting [2], the equilibrium dissociation constant (Kd) came out at 0.0148 mM.

B2: SF1 Pro ABCD: GB1-tagged SF1 construct, residues 410–639 (protein)
chain: GHPMQHNPNGPPPPWMQPPPPPMNQGPHPPGHHGPPPMDQYLGSTPVGSGVYRLHQGKGMMPPPPMGMMPPPPPPPSGQPPPPPSGPLPPWQQQQQQPPPPPPPSSSMASSTPLPWQQNTTTTTTSAGTGSIPPWQQQQAAAAASPGAPQMQGNPTMVPLPPGVQPPLPPGAPPPPPPPPPGSAGMMYAPPPPPPPPMDPSNFVTMMGMGVAGMPPFGMPPAPPPPPPQN
modifications: left off: His6, N-terminal, state not stated | GB1, N-terminal, kept
Consider B2, for which the “DH” value was -67.04 ± 9.68 kcal/mol. Further, under setting [1], the Kd is 0.00541 mM. In addition, the Kd under setting [2] stood at 0.0044 mM.

B3: SF1 Pro B: GB1-tagged SF1 construct, residues 468–539 (protein)
chain: GMMPPPPMGMMPPPPPPPSGQPPPPPSGPLPPWQQQQQQPPPPPPPSSSMASSTPLPWQQNTTTTTTSAGTG
modifications: left off: His6, N-terminal, state not stated | GB1, N-terminal, kept
Regarding B3, the “DH” value is -17.3 ± 3.27 kcal/mol.

B4: SF1 Pro CD: GB1-tagged SF1 construct, residues 539–639 (protein)
chain: GSIPPWQQQQAAAAASPGAPQMQGNPTMVPLPPGVQPPLPPGAPPPPPPPPPGSAGMMYAPPPPPPPPMDPSNFVTMMGMGVAGMPPFGMPPAPPPPPPQN
modifications: left off: His6, N-terminal, state not stated | GB1, N-terminal, kept
Turning to B4, the “DH” value is -46.2 ± 3.11 kcal/mol. Further, under setting [1], the Kd was 0.00283 mM. The Kd under setting [2] came to 0.00432 mM. The Kd under setting [3] was found to be 0.00426 mM.

B5: SF1 Pro BCD: GB1-tagged SF1 construct, residues 468–639 (protein)
chain: GMMPPPPMGMMPPPPPPPSGQPPPPPSGPLPPWQQQQQQPPPPPPPSSSMASSTPLPWQQNTTTTTTSAGTGSIPPWQQQQAAAAASPGAPQMQGNPTMVPLPPGVQPPLPPGAPPPPPPPPPGSAGMMYAPPPPPPPPMDPSNFVTMMGMGVAGMPPFGMPPAPPPPPPQN
modifications: left off: His6, N-terminal, state not stated | GB1, N-terminal, kept
For the molecule B5, the “DH” value was -65.49 ± 8.6 kcal/mol. Under setting [1], the Kd came to 0.00293 mM. Besides, the Kd under setting [2] is 0.00436 mM.

B6: SF1 Pro BC: GB1-tagged SF1 construct, residues 468–594 (protein)
chain: GMMPPPPMGMMPPPPPPPSGQPPPPPSGPLPPWQQQQQQPPPPPPPSSSMASSTPLPWQQNTTTTTTSAGTGSIPPWQQQQAAAAASPGAPQMQGNPTMVPLPPGVQPPLPPGAPPPPPPPPPGSAG
modifications: left off: His6, N-terminal, state not stated | GB1, N-terminal, kept
B6: the “DH” value was -28.99 ± 1.65 kcal/mol. Moreover, the Kd under setting [1] came to 0.00363 mM. Further, the Kd under setting [2] was found to be 0.00776 mM. Under setting [3], the Kd is 0.00911 mM.
